pKd: −log10 of the molar value. Blank lines part the entries; values can stand above or below the sequence they belong to.
Assays:
[1] = target: HLA-B*73:01; assay: IEDB peptide-MHC binding, purified MHC/competitive/fluorescence; filed as Kd, often an IC50 or EC50 that approximates it; ≥ and ≤ were set here for values at or beyond the usual limits of such assays
[2] = target: HLA-B*08:01; assay: IEDB peptide-MHC binding, purified MHC/competitive/radioactivity; filed as Kd, often an IC50 or EC50 that approximates it; ≥ and ≤ were set here for values at or beyond the usual limits of such assays; conditions: source organism: Vaccinia virus WR
[3] = target: HLA-C*07:02; assay: IEDB peptide-MHC binding, purified MHC/direct/fluorescence; filed as Kd, often an IC50 or EC50 that approximates it; ≥ and ≤ were set here for values at or beyond the usual limits of such assays
[4] = target: HLA-C*12:03; assay: as above; conditions: source organism: Vaccinia virus
[5] = target: HLA-A*02:01; assay: IEDB peptide-MHC binding, purified MHC/competitive/fluorescence; filed as Kd, often an IC50 or EC50 that approximates it; ≥ and ≤ were set here for values at or beyond the usual limits of such assays; conditions: source organism: Vaccinia virus
[6] = target: HLA-C*14:02; assay: IEDB peptide-MHC binding, purified MHC/direct/fluorescence; filed as Kd, often an IC50 or EC50 that approximates it; ≥ and ≤ were set here for values at or beyond the usual limits of such assays
[7] = target: HLA-A*80:01; assay: as above; conditions: source organism: West Nile virus
[8] = target: HLA-A*01:01; assay: as above
[9] = target: HLA-A*26:01; assay: as above
[10] = target: HLA-A*26:02; assay: as above
[11] = target: HLA-B*07:02; assay: IEDB peptide-MHC binding, purified MHC/competitive/fluorescence; filed as Kd, often an IC50 or EC50 that approximates it; ≥ and ≤ were set here for values at or beyond the usual limits of such assays; conditions: source organism: Influenza A virus (A/Memphis/1/1978(H1N1))
[12] = target: HLA-B*18:01; assay: IEDB peptide-MHC binding, purified MHC/direct/fluorescence; filed as Kd, often an IC50 or EC50 that approximates it; ≥ and ≤ were set here for values at or beyond the usual limits of such assays
[13] = target: HLA-A*69:01; assay: as above
[14] = target: HLA-A*02:19; assay: as above
[15] = target: HLA-B*27:03; assay: as above
[16] = target: HLA-A*02:03; assay: as above
[17] = target: HLA-B*15:01; assay: as above
[18] = target: HLA-B*57:01; assay: as above
[19] = target: HLA-B*51:01; assay: as above
[20] = target: HLA-A*03:01; assay: as above
[21] = target: HLA-A*02:01; assay: as above
[22] = target: HLA-A*29:02; assay: as above; conditions: source organism: Vibrio vulnificus YJ016
[23] = target: HLA-A*02:12; assay: as above
[24] = target: HLA-A*02:11; assay: as above
[25] = target: HLA-B*46:01; assay: as above
[26] = target: HLA-A*02:16; assay: as above; conditions: source organism: Vibrio vulnificus YJ016
[27] = target: HLA-B*58:01; assay: as above; conditions: source organism: Pseudomonas putida
[28] = target: HLA-A*11:01; assay: as above; conditions: source organism: Pseudomonas putida
[29] = target: HLA-B*40:01; assay: as above; conditions: source organism: Pseudomonas putida
[30] = target: HLA-B*27:05; assay: as above; conditions: source organism: Pseudomonas putida
[31] = target: HLA-B*08:01; assay: as above; conditions: source organism: Pseudomonas putida
[32] = target: HLA-B*07:02; assay: as above; conditions: source organism: Pseudomonas putida
[33] = target: HLA-A*30:01; assay: as above; conditions: source organism: Pseudomonas putida
[34] = target: HLA-A*11:01; assay: IEDB peptide-MHC binding, purified MHC/competitive/fluorescence; filed as Kd, often an IC50 or EC50 that approximates it; ≥ and ≤ were set here for values at or beyond the usual limits of such assays; conditions: source organism: Robiginitalea biformata HTCC2501
[35] = target: HLA-A*03:01; assay: as above; conditions: source organism: Robiginitalea biformata HTCC2501
[36] = target: HLA-A*31:01; assay: as above; conditions: source organism: Robiginitalea biformata HTCC2501
[37] = target: HLA-C*03:03; assay: IEDB peptide-MHC binding, purified MHC/direct/fluorescence; filed as Kd, often an IC50 or EC50 that approximates it; ≥ and ≤ were set here for values at or beyond the usual limits of such assays; conditions: source organism: Mycobacterium tuberculosis C
[38] = target: HLA-B*46:01; assay: IEDB peptide-MHC binding, purified MHC/competitive/fluorescence; filed as Kd, often an IC50 or EC50 that approximates it; ≥ and ≤ were set here for values at or beyond the usual limits of such assays; conditions: source organism: Mycobacterium tuberculosis C
[39] = target: HLA-C*15:02; assay: IEDB peptide-MHC binding, purified MHC/direct/fluorescence; filed as Kd, often an IC50 or EC50 that approximates it; ≥ and ≤ were set here for values at or beyond the usual limits of such assays; conditions: source organism: Homo sapiens
[40] = target: HLA-A*01:01; assay: IEDB peptide-MHC binding, purified MHC/competitive/fluorescence; filed as Kd, often an IC50 or EC50 that approximates it; ≥ and ≤ were set here for values at or beyond the usual limits of such assays; conditions: source organism: Homo sapiens
[41] = target: HLA-A*29:02; assay: as above; conditions: source organism: Homo sapiens
[42] = target: HLA-A*24:03; assay: IEDB peptide-MHC binding, purified MHC/direct/fluorescence; filed as Kd, often an IC50 or EC50 that approximates it; ≥ and ≤ were set here for values at or beyond the usual limits of such assays; conditions: source organism: Yersinia pestis CA88-4125
[43] = target: HLA-B*39:01; assay: as above; conditions: source organism: Yersinia pestis CA88-4125
[44] = source organism: West Nile virus
[45] = source organism: Vibrio vulnificus YJ016
[46] = source organism: Pseudomonas putida
[47] = source organism: Yersinia pestis CA88-4125

Sequence: YRAKVKPWA
pKd ([1]; source organism: Francisella tularensis subsp. tularensis FSC198): 5.35

Sequence: LLYAHINAL
pKd [2]: 8.86 | pKd ([3]; source organism: Vaccinia virus): 6.67 | pKd [4]: 6.65 | pKd [5]: 8.80

Sequence: ATPENAAAL
pKd ([6]; source organism: Mycobacterium tuberculosis variant bovis BCG str. Pasteur 1173P2): 6.75

Sequence: LTKEEFTRY
pKd [7]: 6.26 | pKd [8, 44]: 5.94 | pKd [9, 44]: 5.97 | pKd [10, 44]: 6.55

Sequence: DPLVVAASI
pKd [11]: ≤ 4.70

Sequence: MKYVWPPIM
pKd [12, 45]: ≤ 4.70 | pKd [13, 45]: ≤ 4.70 | pKd [14, 45]: ≤ 4.70 | pKd [15, 45]: ≤ 4.70 | pKd [16, 45]: ≤ 4.70 | pKd [17, 45]: ≤ 4.70 | pKd [18, 45]: ≤ 4.70 | pKd [9, 45]: ≤ 4.70 | pKd [19, 45]: ≤ 4.70 | pKd [20, 45]: ≤ 4.70 | pKd [21, 45]: ≤ 4.70 | pKd [22]: ≤ 4.70 | pKd [23, 45]: ≤ 4.70 | pKd [24, 45]: ≤ 4.70 | pKd [25, 45]: ≤ 4.70 | pKd [26]: ≤ 4.70

pKd [27]: ≤ 4.70 | pKd [8, 46]: ≤ 4.70 | pKd [13, 46]: ≤ 4.70 | pKd [17, 46]: ≤ 4.70 | pKd [28]: 7.26 | pKd [29]: ≤ 4.70 | pKd [9, 46]: ≤ 4.70 | pKd [20, 46]: 6.61 | pKd [30]: 5.12 | pKd [31]: ≤ 4.70 | pKd [21, 46]: ≤ 4.70 | pKd [32]: ≤ 4.70 | pKd [33]: 7.35 | pKd [1, 46]: ≤ 4.70
Sequence: RVWRGEQGK

pKd [34]: 5.62 | pKd [35]: 5.17 | pKd [36]: ≤ 4.70
Sequence: PLAKGLFHK

Sequence: YVFYDGPPF
pKd [37]: 8.00 | pKd ([3]; source organism: Mycobacterium tuberculosis C): 7.68 | pKd ([10]; source organism: Mycobacterium tuberculosis str. Haarlem): 7.96 | pKd [38]: 6.90

pKd [39]: 5.33 | pKd ([6]; source organism: Homo sapiens): 6.29 | pKd [40]: 7.24 | pKd [41]: 9.70
Sequence: HMMAVTLFY

Sequence: VVAANRSAF
pKd ([6]; source organism: Mycobacterium tuberculosis CDC1551): 6.99

Sequence: LPEAYQWHI
pKd [12, 47]: ≤ 4.70 | pKd [14, 47]: ≤ 4.70 | pKd [15, 47]: ≤ 4.70 | pKd [16, 47]: ≤ 4.70 | pKd [17, 47]: ≤ 4.70 | pKd [42]: ≤ 4.70 | pKd [18, 47]: ≤ 4.70 | pKd [9, 47]: ≤ 4.70 | pKd [19, 47]: 6.32 | pKd [20, 47]: ≤ 4.70 | pKd [43]: ≤ 4.70 | pKd [23, 47]: ≤ 4.70 | pKd [24, 47]: ≤ 4.70 | pKd [25, 47]: ≤ 4.70
